Measurements from paper PMC11929449, “Epitope-directed selection of GPCR nanobody ligands with evolvable function” (Proceedings of the National Academy of Sciences of the …, 2025).
Read-outs that look alike come from different tables or passages of the source. Values belong to the binder of their own block, whether it stands above or below them.

Key:
[1] = target: T1, FLAG-tagged human angiotensin II type I receptor (FLAG-AT1R) (human); experiment: flow cytometry on cells; soluble nanobody titrated on Expi293F TetR cells expressing FLAG-AT1R, receptor pre-bound to losartan (10 μM, 5 μM in washes); 20 mM Hepes pH 7.4, 150 mM NaCl, 0.1% BSA, 4 °C; detected with αV5-AlexaFluor647; settings: one partner purified
T1 construct: also called WT receptor; pMAS85; source: Expi293F TetR, transfected, purified in LMNG/CHS (M1-αFLAG resin, SEC); also Expi293F TetR cells stably expressing FLAG-AT1R under a tetracycline-inducible promoter, on intact cells; not shown: FLAG, N-terminal, kept
T1 chain: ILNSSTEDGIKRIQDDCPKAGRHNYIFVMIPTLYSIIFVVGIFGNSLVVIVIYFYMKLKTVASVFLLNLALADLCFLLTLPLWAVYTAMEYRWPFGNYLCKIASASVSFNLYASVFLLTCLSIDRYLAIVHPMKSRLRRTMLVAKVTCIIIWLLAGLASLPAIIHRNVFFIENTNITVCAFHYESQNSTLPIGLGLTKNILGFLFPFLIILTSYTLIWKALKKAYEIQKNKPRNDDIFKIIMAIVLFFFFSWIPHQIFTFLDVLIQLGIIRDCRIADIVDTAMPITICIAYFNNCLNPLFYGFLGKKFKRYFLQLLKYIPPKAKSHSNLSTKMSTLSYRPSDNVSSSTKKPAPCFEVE

[2] = target: T1, FLAG-tagged human angiotensin II type I …; experiment: flow cytometry on cells; soluble nanobody titrated on Expi293F TetR cells expressing FLAG-AT1R, unliganded receptor; 20 mM Hepes pH 7.4, 150 mM NaCl, 0.1% BSA, 4 °C; detected with αV5-AlexaFluor647; settings: one partner purified
[3] = target: T2, FLAG-tagged wild-type human angiotensin II type I receptor (FLAG-AT1R) (Homo sapiens, UniProt P30556); experiment: flow cytometry on cells; purified nanobody (single point 250 or 500 nM, or titrated) on Expi293F TetR cells expressing FLAG-AT1R preincubated with 10 μM losartan at 4 °C for 30 min; detected with αV5-AlexaFluor647; 20 mM Hepes pH 7.4, 150 mM NaCl, 0.1% BSA; settings: one partner purified
T2 construct: angiotensin II type I receptor (AT1R), human, wild type; The signalling assays used FLAG-AT1R in HEK293T or HTLA cells; also called WT receptor; source: Expi293F TetR, transfected, purified in LMNG/CHS (M1-αFLAG resin, SEC); also on intact Expi293F TetR cells stably expressing FLAG-AT1R under a tetracycline-inducible promoter; not shown: FLAG, N-terminal, kept

[4] = target: T2, FLAG-tagged wild-type human angiotensin …
[5] = target: T2, FLAG-tagged wild-type human angiotensin …; experiment: flow cytometry on cells; nanobody displayed on yeast; 100 nM unliganded detergent-purified FLAG-AT1R in solution, detected with fluorophore-conjugated M1-αFLAG; 4 °C, 30 min; 20 mM Hepes pH 7.5, 150 mM NaCl, 2.8 mM CaCl2, 0.05% LMNG, 0.005% CHS; settings: one partner purified
[6] = target: FLAG-tagged wild-type human angiotensin II type I receptor (FLAG-AT1R) (human) (UniProt P30556); experiment: flow cytometry on cells; purified nanobody (single point 250 nM, or titrated) on Expi293F TetR cells expressing FLAG-AT1R preincubated with 10 μM olmesartan at 4 °C for 30 min; detected with αV5-AlexaFluor647; 20 mM Hepes pH 7.4, 150 mM NaCl, 0.1% BSA
[7] = target: T2, FLAG-tagged wild-type human angiotensin …; experiment: flow cytometry on cells; purified nanobody (single point 250 or 500 nM, or titrated) on Expi293F TetR cells expressing FLAG-AT1R, unliganded; 1 h; detected with αV5-AlexaFluor647; 20 mM Hepes pH 7.4, 150 mM NaCl, 0.1% BSA; settings: one partner purified

T2 sequence (P30556 whole entry): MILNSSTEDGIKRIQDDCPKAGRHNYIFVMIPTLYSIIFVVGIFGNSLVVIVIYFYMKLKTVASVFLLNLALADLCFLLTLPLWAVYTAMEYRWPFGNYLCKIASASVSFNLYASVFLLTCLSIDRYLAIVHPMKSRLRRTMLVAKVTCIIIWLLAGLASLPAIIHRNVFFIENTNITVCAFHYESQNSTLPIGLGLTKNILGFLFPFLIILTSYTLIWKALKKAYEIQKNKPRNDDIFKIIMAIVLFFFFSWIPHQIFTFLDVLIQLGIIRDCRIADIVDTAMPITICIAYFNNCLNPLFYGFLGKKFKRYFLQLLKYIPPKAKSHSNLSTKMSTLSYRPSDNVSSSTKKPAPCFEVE

B1: AT118-H CDR1-AT206 CDR2 CDR3 chimeric nanobody (AT118-AT206) (VHH)
VHH: QVQLQESGGGLVQAGGSLRLSCAASDYIYRRYRMGWYRQAPGKEREFVAGIGVGTTTNYADSVKGRFTISRDNAKNTVYLQMNSLKPEDTAVYYCAAYNYFPRSIVYYYVYWGQGTQVTVSS
notes: AT206 with its CDR1 replaced by CDR1 of AT118-H and the G26D stabilising substitution; also called AT118-H G26D CDR1, AT206 CDR 2&3; source: E. coli BL21(DE3), periplasm, purified (Ni-NTA); not shown: V5, C-terminal, kept
Kd [1]: 153 nM
Kd [2]: 206 nM

B2: AT118-H CDR1-AT206 CDR2 CDR3 chimeric nanobody (AT118-AT206) (VHH)
VHH: QVQLQESGGGLVQAGGSLRLSCAASDYIYRRYRMGWYRQAPGKEREFVAGIGVGTTTNYADSVKGRFTISRDNAKNTVYLQMNSLKPEDTAVYYCAAYNYFPRSIVYYYVYWGQGTQVTVSS
notes: as the chain of AT206 with CDR1 replaced by CDR1 of AT118-H and the stabilising substitution G26D; also called AT118-AT206 chimera; source: E. coli BL21(DE3), periplasm, purified (Ni-NTA); not shown: V5, C-terminal, kept
fold increase in affinity over AT206 [3]: 2 fold

binding result [4]: binds
B3: AT210 (VHH)
VHH: QVQLQESGGGLVQAGGSLRLSCAASGTISSWSFMGWYRQAPGKEREFVATIAPGSSTNYADSVKGRFTISRDNAKNTVYLQMNSLKPEDTAVYYCAVYYGVPRFHVYWGQGTQVTVSS

binding result [4]: binds
B4: AT201 (VHH)
VHH: QVQLQESGGGLVQAGGSLRLSCAASGTISDPPYMGWYRQAPGKERELVAAIDVGANTYYADSVKGRFTISRDNAKNTVYLQMNSLKPEDTAVYYCAVEYDAQVPHQYWGQGTQVTVSS

B5: AT207 (VHH)
VHH: QVQLQESGGGLVQAGGSLRLSCAASGYIFTHSSMGWYRQAPGKEREFVAAITVGANTNYADSVKGRFTISRDNAKNTVYLQMNSLKPEDTAVYYCAAYNPFYPVYIYWGQGTQVTVSS
notes: synthetic nanobody AT207; source: E. coli BL21(DE3), periplasm, purified (Ni-NTA); not shown: V5, C-terminal, kept
binding result [3]: binds

B6: AT211 (VHH)
VHH: QVQLQESGGGLVQAGGSLRLSCAASGTISHSAGMGWYRQAPGKERELVAAISGGTITNYADSVKGRFTISRDNAKNTVYLQMNSLKPEDTAVYYCAALGYWRRAGGTYYVVHYYWGQGTQVTVSS
notes: synthetic nanobody AT211; source: E. coli BL21(DE3), periplasm, purified (Ni-NTA); not shown: V5, C-terminal, kept
binding result [3]: binds

binding result [4]: binds
B7: AT203 (VHH)
VHH: QVQLQESGGLVQAGGSLRLSCAASGYISRSYDMGWYRQAPGKERELVASINEGSTTNYADSVKGRFTISRDNAKNTVYLQMNSLKPEDTAVYYCAAYTYGHGDYHVYWGQGTQVTVSS

B8: nanobody AT206 (VHH)
VHH: QVQLQESGGGLVQAGGSLRLSCAASGSISYYRMGWYRQAPGKEREFVAGIGVGTTTNYADSVKGRFTISRDNAKNTVYLQMNSLKPEDTAVYYCAAYNYFPRSIVYYYVYWGQGTQVTVSS
notes: source: E. coli BL21(DE3), periplasm, purified (Ni-NTA); not shown: V5, C-terminal, kept
Kd [1]: 363 nM

B9: AT206, yeast-displayed (VHH)
VHH: QVQLQESGGGLVQAGGSLRLSCAASGSISYYRMGWYRQAPGKEREFVAGIGVGTTTNYADSVKGRFTISRDNAKNTVYLQMNSLKPEDTAVYYCAAYNYFPRSIVYYYVYWGQGTQVTVSS
notes: synthetic nanobody AT206; also in the deposited structures; the anchor is not described here
binding result [5]: binds

B10: AT206 (VHH)
VHH: QVQLQESGGGLVQAGGSLRLSCAASGSISYYRMGWYRQAPGKEREFVAGIGVGTTTNYADSVKGRFTISRDNAKNTVYLQMNSLKPEDTAVYYCAAYNYFPRSIVYYYVYWGQGTQVTVSS
notes: synthetic nanobody AT206; also in the deposited structures; also called parent clone of AT118-AT206; source: E. coli BL21(DE3), periplasm, purified (Ni-NTA); not shown: V5, C-terminal, kept
binding result [3]: binds

B11: AT205 (VHH)
VHH: QVQLQESGGGLVQAGGSLRLSCAASGYIFYDSVMGWYRQAPGKEREFVAAIAAGSSTNYADSVKGRFTISRDNAKNTVYLQMNSLKPEDTAVYYCGEYYNWLHQYWGQGTQVTVSS
notes: synthetic nanobody AT205; source: E. coli BL21(DE3), periplasm, purified (Ni-NTA); not shown: V5, C-terminal, kept
binding result [3]: binds

binding result [4]: binds
B12: AT212 (VHH)
VHH: QVQLQESGGGLVQAGGSLRLSCAASGSISNYKYMGWYRQAPGKERELVATIGGGATTNYADSVKGRFTISRDNAKNTVYLQMNSLKPEDTAVYYCAAVRAGYSLYYPYFYYWGQGTQVTVSS

B13: AT208 (VHH)
VHH: QVQLQESGGGLVQAGGSLRLSCAASGYIFTRYRMGWYRQAPGKEREFVAAIGDGGTTNYADSVKGRFTISRDNAKNTVYLQMNSLKPEDTAVYYCAAYYVSRPNYGTIYVYWGQGTQVTVSS
notes: synthetic nanobody AT208; source: E. coli BL21(DE3), periplasm, purified (Ni-NTA); not shown: V5, C-terminal, kept
binding result [3]: binds

binding result [4]: binds
B14: AT213 (VHH)
VHH: QVQLQESGGGLVQAGGSLRLSCAASGYIFYGATMGWYRQAPGKEREFVAGINYGGSTNYADSVKGRFTISRDNAKNTVYLQMNSLKPEDTAVYYCAVWDTYAQRRSSYFVYWGQGTQVTVSS

B15: AT209 (VHH)
VHH: QVQLQESGGGLVQAGGSLRLSCAASGYIFYRYSMGWYRQAPGKEREFVAGISYGATTNYADSVKGRFTISRDNAKNTVYLQMNSLKPEDTAVYYCAAWGGRTLYFVYWGQGTQVTVSS
Kd [6]: 100 nM

B16: AT209 L103D (VHH)
VHH: QVQLQESGGGLVQAGGSLRLSCAASGYIFYRYSMGWYRQAPGKEREFVAGISYGATTNYADSVKGRFTISRDNAKNTVYLQMNSLKPEDTAVYYCAAWGGRTDYFVYWGQGTQVTVSS
notes: as the chain of AT209 with L103D in CDR3; also called AT209 L103D^CDR3; AT209 L103D variant; source: E. coli BL21(DE3), periplasm, purified (Ni-NTA); not shown: V5, C-terminal, kept
binding result [7]: binds

B17: nanobody AT209 L103D (VHH)
VHH: QVQLQESGGGLVQAGGSLRLSCAASGYIFYRYSMGWYRQAPGKEREFVAGISYGATTNYADSVKGRFTISRDNAKNTVYLQMNSLKPEDTAVYYCAAWGGRTDYFVYWGQGTQVTVSS
notes: the substitution L103D is still to be applied; also called AT209 L103D^CDR3; source: E. coli BL21(DE3), periplasm, purified (Ni-NTA); not shown: V5, C-terminal, kept
Kd [2]: 144 nM
